Usually IC50 stands for the concentration at which inhibition is half-maximal.

In experiment [1] the target is T1, neutravidin (UniProt P02701 25-152).
T1 construct: also called NA; NAV
As to the kind of experiment: Fab ELISA, Fab 5 ug/ml on immobilised antigen, anti-Flag-HRP, A450. The method, then: (§1) Fab ELISA using both human and mouse αKlotho was carried out for assessing cross-reactivity to human and mouse αKlotho (FIG. 16). Fabs (5 ug/ml) were incubated with immobilized αKlotho human, mouse, or neutravidin (NA) and SBA as negative controls. After washing off unbound Fab, bound Fab were detected using an HRP-conjugated anti-Flag antibody (Fabs have Falg tag on the end of their light chains). Colorimetric HRP reagents allow for absorbance readings at 450 nm.
Background: In an ELISA, binding on a coated surface is turned into a signal by an enzyme label.

The target of experiment [2] is T2, bovine serum albumin (bovine, UniProt P02769 25-607).
T2 construct: also called BSA
The experiment is described as above. The protocol:
as §1

Experiment [3] has as its target T3, soluble human αKlotho (recombinant) (human, UniProt Q9UEF7 34-981).
T3 construct: also called Hu aKL; recombinant human αKlotho
T3 sequence (looked up): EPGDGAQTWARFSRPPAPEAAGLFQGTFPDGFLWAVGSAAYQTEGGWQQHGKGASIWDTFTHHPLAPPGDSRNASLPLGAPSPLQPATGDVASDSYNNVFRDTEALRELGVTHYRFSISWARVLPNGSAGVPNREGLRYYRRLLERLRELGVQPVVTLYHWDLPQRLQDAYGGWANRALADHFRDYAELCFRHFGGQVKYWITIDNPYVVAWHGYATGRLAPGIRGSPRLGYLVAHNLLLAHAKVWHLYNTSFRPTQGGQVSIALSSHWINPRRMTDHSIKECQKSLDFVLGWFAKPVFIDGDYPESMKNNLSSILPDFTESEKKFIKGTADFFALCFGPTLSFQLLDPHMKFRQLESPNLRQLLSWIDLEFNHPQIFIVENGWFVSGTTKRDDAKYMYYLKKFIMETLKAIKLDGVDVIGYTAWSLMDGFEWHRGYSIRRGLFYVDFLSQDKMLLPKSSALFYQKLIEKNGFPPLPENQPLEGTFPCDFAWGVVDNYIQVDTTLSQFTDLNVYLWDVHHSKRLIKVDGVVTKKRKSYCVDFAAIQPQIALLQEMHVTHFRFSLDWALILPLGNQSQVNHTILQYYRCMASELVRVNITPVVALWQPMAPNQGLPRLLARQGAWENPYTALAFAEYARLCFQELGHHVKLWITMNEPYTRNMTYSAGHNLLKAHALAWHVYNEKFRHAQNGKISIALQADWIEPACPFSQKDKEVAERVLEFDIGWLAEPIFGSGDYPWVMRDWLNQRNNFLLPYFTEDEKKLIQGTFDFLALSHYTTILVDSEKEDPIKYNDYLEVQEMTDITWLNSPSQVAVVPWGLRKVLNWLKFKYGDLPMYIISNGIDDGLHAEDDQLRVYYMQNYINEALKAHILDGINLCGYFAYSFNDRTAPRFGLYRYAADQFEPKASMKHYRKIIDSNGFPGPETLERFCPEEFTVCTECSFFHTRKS
As to the kind of experiment: competitive Fab-phage ELISA, soluble human αKlotho against immobilised human αKlotho. The protocol: (A) CDR sequences and VH domain framework region residues variable in Library F for anti-αKlotho sb106, according to the IMGT (international ImMunoGeneTics database) numbering scheme. IMGT CDR residues are underlined, IMGT framework region residues are not underlined, residues at IMGT positions which were randomized in the selection library are bold. (B) Specificity determination of anti-αKlotho sb106 by Fab-phage ELISA: sb106 Fab-phage were incubated with the following immobilized antigens: a complex of FGFR1c/αKlotho complex (aKL-R1), FGFR1c alone (R1), human αKlotho (Hu aKL) and mouse αKlotho (Mu aKL), or neutravidin (NA) and bovine serum albumin (BSA) as negative controls. After washing off unbound phage, bound phages were detected using an HRP-conjugated anti-phage antibody. Colorimetric HRP reagents allow for absorbance readings at 450 nm. […] The binding signals to immobilized human αKlotho reported are an average of two data sets.
Binding selections, phage ELISAs and Fab protein purification were performed as described. Briefly, phage from library F were cycled through rounds of panning with the binary complex of αKlotho extracellular domain and FGFR1c ligand-binding domain on 96-well Maxisorp Immunoplates (Fisher Scientific, Nepean, ON, Canada) as the capture target. […]

T2 sequence (P02769 25-607 limits assumed): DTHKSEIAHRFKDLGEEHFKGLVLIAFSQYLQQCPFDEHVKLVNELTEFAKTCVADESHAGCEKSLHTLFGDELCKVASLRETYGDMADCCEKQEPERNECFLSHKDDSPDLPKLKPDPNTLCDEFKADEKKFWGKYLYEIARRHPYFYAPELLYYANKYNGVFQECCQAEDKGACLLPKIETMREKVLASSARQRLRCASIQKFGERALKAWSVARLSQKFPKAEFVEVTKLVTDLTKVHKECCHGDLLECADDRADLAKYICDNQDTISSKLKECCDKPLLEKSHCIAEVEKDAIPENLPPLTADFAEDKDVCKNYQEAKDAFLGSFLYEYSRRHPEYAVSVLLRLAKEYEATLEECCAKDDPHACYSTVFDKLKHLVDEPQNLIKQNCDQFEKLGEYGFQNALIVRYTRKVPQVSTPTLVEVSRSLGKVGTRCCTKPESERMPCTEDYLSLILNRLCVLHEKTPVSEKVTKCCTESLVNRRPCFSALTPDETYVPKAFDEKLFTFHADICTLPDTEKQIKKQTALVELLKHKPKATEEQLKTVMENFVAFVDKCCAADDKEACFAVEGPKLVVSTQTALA
T1 sequence (P02701 25-152): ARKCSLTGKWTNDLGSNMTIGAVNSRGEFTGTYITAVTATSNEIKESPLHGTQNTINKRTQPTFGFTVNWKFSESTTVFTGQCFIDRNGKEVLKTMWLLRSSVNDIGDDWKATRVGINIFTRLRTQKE

B1: sb106 Fab (Fab, V domains shown)
VH: EVQLVESGGGLVQPGGSLRLSCAASGFNISYYSIHWVRQAPGKGLEWVAYISPSYGYTSYADSVKGRFTISADTSKNTAYLQMNSLRAEDTAVYYCARYYVYASHGWAGYGMDYWGQGTLVTVSS
VL: DIQMTQSPSSLSASVGDRVTITCRASQSVSSAVAWYQQKPGKAPKLLIYSASSLYSGVPSRFSGSRSGTDFTLTISSLQPEDFATYYCQQAGYSPITFGQGTKVEIKR
notes: also called Fsb106; clone 48
Turning to B1, the binding result in experiment [1] and in experiment [2] was “no binding (tested: 5 ug/ml)” in each case. In experiment [3], the IC50 turned out to be 1.7 nM.

The values above are taken from US20190041402A1 (GOVERNING COUNCIL OF THE UNIVERSITY OF TORONTO, published 2019).
